“Also recorded” adds a separate entry of the source.

Data on one molecule can be found in patent publication US20250108100A1, “C-TERMINAL FRAGMENT OF APOLIPOPROTEIN E AND APPLICATION THEREOF IN INHIBITING y-SECRETASE ACTIVITY” (SYNPHATEC (SHANGHAI) BIOPHARMACEUTICAL TECHNOLOGY CO., LTD., priority 2022, published 2025).

The test system of series [1] is APP and BACE1 co-expressed in N2A cells. Nature of the series: Aβ40 ELISA in N2A cells co-expressing APP and BACE1. Format: cell-based, mouse. The protocol: 48 hours after transfection of HEK 293T cells and N2A cells, or 4.5 days after lentivirus infection of neurons, media and lysates were collected. Aβ40 and Aβ42 in the culture medium and cell lysates were detected by an Aβ ELISA kit as indicated in the protocol. (Invitrogen Technology; KHB3481 for human Aβ40, KHB3441 for human Aβ42 and KMB3481 for mouse Aβ40).
Data were analyzed by GraphPad Prism software (v6) using unpaired, paired, or one-sample t-tests. Aβ40 and Aβ42 levels were normalized to the corresponding GFP controls. α-CTF levels were normalized to FL-APP and corresponding GFP controls. All data are represented as mean±SEM. Statistical significance was defined as p<0.05. One, two, three and four stars (*) in the graph indicate p-values <0.05, <0.01, <0.001 and <0.0001, respectively.
A general note: An ELISA detects its analyte on a solid surface through an enzyme-linked reagent.

The next series has as its system 5×FAD mice. Nature of the series: Amyloid plaques in brain of 5×FAD mice after AAV neuronal expression. Format: in vivo, mouse. The protocol:
0-7 months old C57 wild-type mice and AD model mice (5×FAD mice [Tg6799], mice expressing APP and PS1 comprising pathogenic mutations. The expressed APP comprises three mutations: K670N/M671L, I716V, V717I; and PS1 comprises two mutations: M146L, L286V). The mice were given sufficient food and water, and were reared at room temperature with a 12 h/12 h light-dark cycle, and the feeding environment reached the SPF (Specific Pathogen Free) standard.
• a) The brain was taken by perfusion. The mice were perfused at the heart, the blood was washed out with 20 ml PBS, and then the mice were perfused with 20 ml 4% PFA. • b) Fixation and dehydration. The mice were fixed with 4% PFA at 4° C. for 24 hours, and then dehydrated with 30% sucrose at 4° C. • c) Mouse brain slices. After 24 hours of dehydration, the mice brain was cut into slices at a thickness of 40 μm, stored in frozen buffer solution or used for subsequent immunohistochemistry. • d) THS staining. The mouse brain slices were washed three times with ddH2O, 5 minutes each; soaked in 1% THS aqueous solution for 10 minutes; washed twice with 80% ethanol, each time for 3 minutes; washed once with 95% ethanol for 3 minutes. Immunohistochemistry was performed subsequently. If THS staining is not performed, the following immunohistochemistry was performed directly. • e) Immunohistochemistry. The mouse brain slices were washed three times with 1×PBS for 10 minutes each time; the cell membrane was permeated using 0.1% Triton-X100; the brain slices were blocked by using 5% donkey or goat serum; then the primary antibody was incubated at 4° C., shaken overnight (12-16 h); washed three times with 1×PBS for 10 minutes each time; the secondary antibody was incubated, shaken at room temperature for 1-2 h; washed three times with 1×PBS for 10 minutes each time. • f) Patching and sealing. • g) Imaging, 24 hours post sealing. • h) Images were processed and signal density was analyzed by Image J.
Adeno-associated virus AAV-CT (AAV2/9-hSyn-ApoE CT) and AAV-GFP (AAV2/9-hSyn-EGFP-WPRE-pA) expressed in neurons were purchased from Tertu Biotechnology Company.
1 μl of the adeno-associated virus prepared above was injected into the cerebral cortex (x, y, z, +/−1.6, 0, −1) and hippocampus (x, y, z, +/−1.5, −2, −1.5) of 1-month-old mice by using a stereotaxic injection device.
Human APP and PS1 with five fAD mutations are expressed in neurons of 5×FAD mice: K670N/M671L+I716V+V717I mutations in APP and M146L+L286V mutations in PS1 (Oakley et al., 2006). All mice were housed under a 12 h light-dark cycle (light from 8 am to 8 pm) with ad libitum access to food and water. All mouse procedures were performed in accordance with the Guide for the Care and Use of Laboratory Animals of the Chinese Academy of Sciences and the National Institutes of Health.
Mice were anesthetized with isoflurane and perfused with 4% PFA. Dissected mouse brains were fixed overnight in 4% PFA and cryoprotected overnight in 30% sucrose. A cryostat (Leica, CM3050S) was used to obtain frozen brain slices ([…]) from fixed and cryoprotected mouse brains. Floating slices were washed 3 times with ddH2O and then incubated with 1% THS (SIGMA) in water for 5 minutes at room temperature. Next, the slices were washed twice with 80% ethanol and once with 95% ethanol for 3 minutes each. The samples were washed with ddH2O and 3 times with 1×PBS before IHC.
After being deeply anesthetized with isoflurane, mice (5 weeks old) were placed in a stereotaxic apparatus (RWD Instruments). The zero point (x, y, z, 0, 0, 0) is Bregma. Lentivirus (lentivirus-GFP, lentivirus-ApoE and lentivirus-ApoE-IRES-GFP) and AAV (AAV2/9-hSyn-EGFP-WPRE-pA and AAV2/9-hSyn-ApoECT; purchased from Shanghai Taitool Bioscience Co. Ltd.) were injected into the cortex (x, y, z, +/−1.6, 0, −1) or hippocampus (x, y, z, +/−1.5, −2, −1.5), injected 1 ul on each injection site. The mice were then returned to their cages for rehabilitation after surgery.

B1: ApoE CT: C-terminal fragment of ApoE, positions 216-299 of SEQ ID NO: 12; SEQ ID NO: 33 (protein)
chain: ARMEEMGSRTRDRLDEVKEQVAEVRAKLEEQAQQIRLQAEAFQARLKSWFEPLVEDMQRQWAGLVEKVQAAVGTSAAPVPSDNH
As to B1, the “total Aβ40” value in series [1] is reported as “significantly reduced”. Besides, the average plaque size entry in the series with 5×FAD mice (AAV at 4 weeks, after 10 weeks, subiculum, vs GFP) is given as “significantly reduced”. The “average area of each amyloid plaque” value in the series with 5×FAD mice (AAV at 4 weeks, six months expression, subiculum, vs GFP) is on record as “smaller”. Also, in the series on 5×FAD mice (after 10 weeks, subiculum), the “percentage of total amyloid plaque area” value is “significantly reduced” and the plaque density result was “significantly reduced”. Moreover, in the series with 5×FAD mice (six months expression), the “density of amyloid plaques” value was “decreases; also recorded: lower” and the “proportion of total area of amyloid plaques” value was “smaller proportion”. Besides, in the series on 5×FAD mice (six months expression, THS), the “fluorescence intensity of amyloid plaques” value is “weaker”.
